Patent publication US20160333105A1 (UCB, published 2016)

How the values were obtained:
[1] = biological target: T1, human serum albumin (human, UniProt P02768 25-609); experiment: SPR, Biacore 3000; construct captured by anti-CH1 antibody, HSA as analyte, 1:1 model
T1 construct: Bought reagent; also called HSA
Protocol: (§1) The (A26Fab-645Fv)₂-Fc samples were captured to the sensor chip surface using either a human Fe-specific goat F(ab′)₂ (Jackson ImmunoResearch, 109-006-098) or an in-house generated anti-human CH1 monoclonal antibody. Covalent immobilisation of the capture antibody was achieved by standard amine coupling chemistry.
(§2) Kinetic binding analysis by SPR was conducted to assess the interactions of human serum albumin (HSA) to the (A26Fab-645Fv)₂-Fc fusion, when captured using either anti-Fc or anti CH1 antibody.

[2] = biological target: T1, human serum albumin; experiment: SPR (BIAcore), HSA as analyte
[3] = biological target: T1, human serum albumin; experiment: SPR, Biacore 3000; construct captured by anti-Fc F(ab')2, HSA as analyte, 1:1 model
Protocol: as §1, §2

B1: (A26Fab-645Fv)2-Fc (bispecific antibody)
heavy: not shown
light: DIQMTQSPSSLSASVGDRVTITCRATQSIYNALAWYQQKPGKAPKLLIYNANTLHTGVPSRFSASGSGTDSTLTISSLQPEDFATYYCQQYYDYPLTFGGGTKVEIKRTVAAPSVFIFPPSDEQLKSGTASVVCLLNNFYPREAKVQWKVDNALQSGNSQESVTEQDSKDSTYSLSSTLTLSKADYEKHKVYACEVTHQGLSSPVTKSFNRGECSGGGGSGGGGSDIVMTQSPSSVSASVGDRVTITCQSSPSVWSNFLSWYQQKPGKAPKLLIYEASKLTSGVPSRFKGSGSGTDFTLTISSLQPEDFATYYCGGGYSSISDTTFGGGTKVEIKRMHEQKLISEEDL
notes: Tested as HEK293 supernatant; also called (FabFv)2Fc; (A26-645Fv)2-Fc
Kd [1]: 0.97 nM | koff [1]: 6e-05 s⁻¹ | kon [1]: 62000 M⁻¹ s⁻¹ | Kd [2]: 0.97 nM | Stoichiometry [2]: 0.55 | koff [2]: 6e-05 s⁻¹ | kon [2]: 62100 M⁻¹ s⁻¹ | Kd [3]: 1.88 nM | koff [3]: 7.14e-05 s⁻¹ | kon [3]: 38000 M⁻¹ s⁻¹
